We go through 7 molecules from PMC11246429 (2024).

In experiment [1] the target is AP180 segment 471–700 (rat). Put plainly: NMR titration; unlabeled AP2α titrated into 15N labeled AP180 (50 μM AP180 471–700, 90 μM AP180IDR); 1H-15N HSQC and 15N R1ρ; residue-wise KD from R1ρ against AP2α concentration; NMR buffer 50 mM Na-phosphate pH 6, 150 mM NaCl, 2 mM DTT, 25 °C.
The target in the next experiment is AP180 399-598 (rat). Put plainly: ITC; AP2β2 mutants titrated into 0.04 mM AP180 399-598 in the cell; 25 °C; 150 mM NaCl, 50 mM Na-phosphate, 0.2 mM TCEP, pH 7.5; 1:1 binding model.
Experiment [2] has as its target AP180 IDR (residues 281–898 of AP180) (rat). Put plainly: NMR titration; unlabeled CHCTD (in 50 mM Na-phosphate pH 7.5, 150 mM NaCl, 2 mM DTT) titrated into 15N labeled AP180 in NMR buffer (pH 6); 1H-15N HSQC and 15N R1ρ; residue-wise KD from a linear fit of R1ρ against CHCTD concentration under the assumption of weak binding; 25 °C.
In experiment [3] the target is AP180 segment 399–598 (rat). In words: NMR CPMG relaxation dispersion; 100 μM 15N AP180 399–598 with 10 μM unlabeled AP2β2; 600 and 850 MHz; 22 residues fitted together with a two-state exchange model (ChemEx); KD calculated from pB under the assumption of 1:1 stoichiometry.
Experiment [4] has as its target AP180 IDR (residues 281–898 of AP180) (rat). In words: ITC; 0.03 mM AP180 construct in the cell (0.04 mM AP180 399–598 for the AP2β2 mutants), 2 μl steps of 0.3 mM AP2β2; 25 °C; 150 mM NaCl, 50 mM Na-phosphate, 0.2 mM TCEP, pH 7.5; 1:1 binding model. For orientation: In ITC the heat of successive injections is recorded.
The target of experiment [5] is AP180 430–500 (extended interaction motif, EIM) (rat). The description is as above.
Experiment [6] has as its target AP180 segment 399–598 (rat). The description is as above.
Experiment [7] has as its target T1, AP2 β2-appendage domain with linker (residues 617–951) (bovine, UniProt Q08DS7 617-951).
T1 chain: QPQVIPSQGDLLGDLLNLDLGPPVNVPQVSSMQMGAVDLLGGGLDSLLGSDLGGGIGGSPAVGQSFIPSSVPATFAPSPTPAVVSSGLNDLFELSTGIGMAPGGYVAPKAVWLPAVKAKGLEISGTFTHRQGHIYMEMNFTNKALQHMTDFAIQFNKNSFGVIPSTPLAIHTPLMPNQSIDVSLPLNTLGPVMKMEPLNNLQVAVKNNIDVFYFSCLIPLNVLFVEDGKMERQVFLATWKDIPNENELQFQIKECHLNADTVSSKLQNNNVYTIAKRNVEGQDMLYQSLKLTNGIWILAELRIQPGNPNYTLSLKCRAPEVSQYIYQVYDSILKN
In words: ITC.

Chain of AP180 segment 471–700 (rat) (Q05140 whole entry): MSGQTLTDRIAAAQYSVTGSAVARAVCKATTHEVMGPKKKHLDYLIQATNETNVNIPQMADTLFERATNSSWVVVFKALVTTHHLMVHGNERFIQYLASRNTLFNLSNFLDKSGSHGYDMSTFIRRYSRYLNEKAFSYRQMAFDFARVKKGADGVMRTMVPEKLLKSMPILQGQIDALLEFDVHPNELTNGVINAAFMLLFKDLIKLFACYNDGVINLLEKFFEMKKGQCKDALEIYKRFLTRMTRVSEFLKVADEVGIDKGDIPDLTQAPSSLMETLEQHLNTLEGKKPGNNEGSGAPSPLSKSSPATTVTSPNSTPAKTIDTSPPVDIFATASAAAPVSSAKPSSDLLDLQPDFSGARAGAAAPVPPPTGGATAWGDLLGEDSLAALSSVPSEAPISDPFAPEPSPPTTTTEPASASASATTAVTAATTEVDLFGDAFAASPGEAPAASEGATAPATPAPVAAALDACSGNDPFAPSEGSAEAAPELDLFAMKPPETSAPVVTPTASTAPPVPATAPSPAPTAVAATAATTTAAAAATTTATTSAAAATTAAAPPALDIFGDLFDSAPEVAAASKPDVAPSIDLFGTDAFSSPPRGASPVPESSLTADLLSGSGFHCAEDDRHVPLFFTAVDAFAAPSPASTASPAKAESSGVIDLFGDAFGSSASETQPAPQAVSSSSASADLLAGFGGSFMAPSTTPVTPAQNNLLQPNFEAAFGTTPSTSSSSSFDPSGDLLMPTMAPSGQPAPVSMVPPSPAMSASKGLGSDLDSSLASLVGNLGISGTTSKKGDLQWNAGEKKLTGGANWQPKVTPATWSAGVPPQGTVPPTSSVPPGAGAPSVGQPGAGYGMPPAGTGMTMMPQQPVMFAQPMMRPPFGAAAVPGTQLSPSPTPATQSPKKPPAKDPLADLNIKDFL

In experiment [1], “AP2 α-appendage domain (residues 701–938) (from UniProt P17427 701-938) (domain or fragment)” yielded a residue-wise KD (first residue of Fig. 3D) of 144 µM, a residue-wise KD (second residue of Fig. 3D) of 380 µM and a residue-wise KD (third residue of Fig. 3D) of 414 µM.

For the molecule AP2β2 K842E (domain or fragment), in the experiment with AP180 399-598 (rat), the Kd was 7.8 µM.

In the case of AP2β2 Y815A (domain or fragment), in the experiment with AP180 399-598 (rat), the Kd was 4.9 µM.

The molecule AP2β2 Y888A (domain or fragment) registered an equilibrium dissociation constant (Kd) with AP180 399-598 (rat) of 7.3 µM.

In experiment [2], “clathrin heavy chain terminal domain (residues 1–363) (from UniProt P49951 1-363) (domain or fragment)” displayed a residue-wise KD (first residue of Fig. 2E) of 177 µM, a residue-wise KD (fourth residue of Fig. 2E) of 700 µM, a residue-wise KD (second residue of Fig. 2E) of 294 µM and a residue-wise KD (third residue of Fig. 2E) of 549 µM.

B1: AP2 β2-appendage domain with linker (residues 617–951) (domain or fragment)
chain: QPQVIPSQGDLLGDLLNLDLGPPVNVPQVSSMQMGAVDLLGGGLDSLLGSDLGGGIGGSPAVGQSFIPSSVPATFAPSPTPAVVSSGLNDLFELSTGIGMAPGGYVAPKAVWLPAVKAKGLEISGTFTHRQGHIYMEMNFTNKALQHMTDFAIQFNKNSFGVIPSTPLAIHTPLMPNQSIDVSLPLNTLGPVMKMEPLNNLQVAVKNNIDVFYFSCLIPLNVLFVEDGKMERQVFLATWKDIPNENELQFQIKECHLNADTVSSKLQNNNVYTIAKRNVEGQDMLYQSLKLTNGIWILAELRIQPGNPNYTLSLKCRAPEVSQYIYQVYDSILKN
B1: the dissociation constant (Kd) is 10 µM in experiment [3], 6.97 µM in experiment [4], 2.5 µM in experiment [5] and 5.1 µM in experiment [6]. The exchange rate kex (kon [AP2β2] + koff) in experiment [3] was 662 s⁻¹. In addition, in experiment [3], the percentage of bound population of AP180 (10% AP2β2) was 8.9%.

B2: AP180 IDR (residues 281–898 of AP180) (domain or fragment)
chain: GHMHLNTLEGKKPGNNEGSGAPSPLSKSSPATTVTSPNSTPAKTIDTSPPVDIFATASAAAPVSSAKPSSDLLDLQPDFSGAAAGAAAPVPPPTGGATAWGDLLGEDSLAALSSVPSEAPISDPFAPEPSPPTTTTEPASASASATTAVTAATTEVDLFGDAFAASPGEAPAASEGATAPATPAPVAAALDACSGNDPFAPSEGSAEAAPELDLFAMKPPETSAPVVTPTASTAPPVPATAPSPAPTAVAATAAATTTTTAAAATTTATTSAAAAATAAAPPALDIFGDLFDSAPEVAAASKPDVAPSIDLFGTDAFSSPPRGASPVPESSLTADLLSVDAFAAPSPASTASPAKAESSGVIDLFGDAFGSSASETQPAPQAVSSSSASADLLAGFGGSFMAPSTTPVTPAQNNLLQPNFEAAFGTTPSTSSSSSFDPSGDLLMPTMAPSGQPAPVSMVPPSPAMSASKGLGSDLDSSLASLVGNLGISGTTSKKGDLQWNAGEKKLTGGANWQPKVTPATWSAGVPPQGTVPPTSSVPPGAGAPSVGQPGAGYGMPPAGTGMTMMPQQPVMFAQPMMRPPFGAAAVPGTQLSPSPTPATQSPKKPPAKDPLADLNIKDFLLEHHHHHH
On to B2, for which binding in experiment [7] was characterised by a dissociation constant (Kd) of 4.2 µM.

By Kd is commonly meant the concentration at which binding is half-saturated.
